Laboratory results published in publication PMC3317499.

B1: Myc-Mal-TIR wild type (TIR domain of human MyD88 adaptor-like protein, residues 79-221, double-tagged with His6 and Myc) [human] / GST-Mal-TIR (TIR domain of human Mal, residues 79-221, GST fusion) [human] (parent)
chain 1: SSRWSKDYDVCVCHSEEDLVAAQDLVSYLEGSTASLRCFLQLRDATPGGAIVSELCQALSSSHCRVLLITPGFLQDPWCKYQMLQALTEAPGAEGCTIPLLSGLSRAAYPPELRFMYYVDGRGPDGGFRQVKEAVMRYLQTLS
chain 2: B1 chain 1

Variants of: B1
Test: GST pull-down, quantified Western blot
Conditions: with GST-Mal-TIR (TIR domain of human Mal, residues 79-221, GST fusion) [human]; n = 3 separate experiments; parent: 1; read off a plot

Variant	ratio to parent
chain 1 R114A	0.91
chain 1 W78A	0.6
chain 1 Y81A	0.41
chain 1 D9A	1.2
